What all share (test): cell-based or functional assay
The target of test [1] is cynomolgus monkey PROKR1 (cynomolgus monkey (Macaca fascicularis)) (UniProt G7PMD0).
For test [2], the target named is rat PROKR1 (rat (Rattus norvegicus)) (UniProt Q8R416).
The target in another test is human PROKR1 (human) (UniProt Q8TCW9).
In test [3] the target is mouse PROKR1 (mouse (Mus musculus)) (UniProt Q9JKL1).
mouse PROKR1 (mouse (Mus musculus)), sequence (Q9JKL1 whole entry): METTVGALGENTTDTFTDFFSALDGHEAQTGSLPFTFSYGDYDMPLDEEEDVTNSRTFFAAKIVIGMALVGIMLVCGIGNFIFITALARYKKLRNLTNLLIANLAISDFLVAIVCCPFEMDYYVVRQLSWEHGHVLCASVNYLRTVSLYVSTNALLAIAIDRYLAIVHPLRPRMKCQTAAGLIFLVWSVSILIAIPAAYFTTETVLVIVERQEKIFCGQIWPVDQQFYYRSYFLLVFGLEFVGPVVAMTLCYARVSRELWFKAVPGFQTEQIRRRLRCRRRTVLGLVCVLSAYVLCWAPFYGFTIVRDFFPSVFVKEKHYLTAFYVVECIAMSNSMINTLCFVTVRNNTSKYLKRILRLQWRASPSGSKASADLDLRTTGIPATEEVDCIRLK

human PROKR1 (human), sequence (Q8TCW9 whole entry): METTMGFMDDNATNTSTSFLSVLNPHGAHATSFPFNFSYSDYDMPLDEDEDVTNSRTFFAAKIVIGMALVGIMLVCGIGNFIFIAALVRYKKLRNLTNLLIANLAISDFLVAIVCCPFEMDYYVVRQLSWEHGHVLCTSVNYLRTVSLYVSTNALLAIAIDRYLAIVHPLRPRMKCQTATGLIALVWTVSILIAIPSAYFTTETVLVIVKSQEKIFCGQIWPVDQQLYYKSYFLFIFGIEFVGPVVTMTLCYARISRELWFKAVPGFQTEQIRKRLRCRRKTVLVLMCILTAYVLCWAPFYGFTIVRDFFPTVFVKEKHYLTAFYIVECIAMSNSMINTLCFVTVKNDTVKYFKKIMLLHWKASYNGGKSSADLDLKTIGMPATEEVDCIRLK
cynomolgus monkey PROKR1 (cynomolgus monkey (Macaca fascicularis)), sequence (G7PMD0 entry or part of it): as the sequence (Q8TCW9 whole entry) above, with V22A, T31A, S40G, I82V, V135I, K210R, V246F, D348N, V350A counted along it
rat PROKR1 (rat (Rattus norvegicus)), sequence (Q8R416 whole entry): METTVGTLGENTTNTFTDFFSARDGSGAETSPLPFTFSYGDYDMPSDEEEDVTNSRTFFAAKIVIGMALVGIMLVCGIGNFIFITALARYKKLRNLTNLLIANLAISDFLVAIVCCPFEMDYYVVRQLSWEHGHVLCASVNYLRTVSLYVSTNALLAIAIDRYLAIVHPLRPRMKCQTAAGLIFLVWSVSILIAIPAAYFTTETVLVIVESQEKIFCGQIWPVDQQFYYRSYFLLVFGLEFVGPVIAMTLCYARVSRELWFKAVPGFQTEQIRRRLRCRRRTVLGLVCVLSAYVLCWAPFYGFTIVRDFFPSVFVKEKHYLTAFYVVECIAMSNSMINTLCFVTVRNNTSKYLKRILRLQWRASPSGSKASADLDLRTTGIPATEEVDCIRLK

B1: human prokineticin 1 (ligand, UniProt P58294 20-105, looked up)
chain: AVITGACERDVQCGAGTCCAISLWLRGLRMCTPLGREGEECHPGSHKVPFFRKRKHHTCPCLPNLLCSRFPDGRYRCSMDLKNINF
For B1, in test [1], the EC50 (nM), calcium mobilization, 293/mfPROKR1, Experiment 1 came out at 69 nM and the EC50 (nM), calcium mobilization, 293/mfPROKR1, Experiment 3 is 5 nM. Further, in test [2], the EC50, calcium flux, 293/rPROKR1, no antibody was 0.7 nM. For the same molecule, in the test with human PROKR1 (human), the EC50 (nM), calcium mobilization, 293/hPROKR1, Experiment 1 is 6.2 nM; the EC50 (nM), calcium mobilization, 293/hPROKR1, Experiment 2 worked out at 14.3 nM; the EC50 (nM), calcium mobilization, 293/hPROKR1, Experiment 3 was 2.2 nM. Also, in test [3], the EC50, calcium flux, 293/mPROKR1, no antibody was found to be 0.9 nM; the Ligand EC50 (nM), calcium flux, CHO/mPROKR1 (induced) is 1.5 nM; the Ligand EC50 (nM), calcium flux, CHO/mPROKR1 (non-induced) came to 8.3 nM.

B2: human prokineticin 2 (ligand, UniProt Q9HC23-2 28-108, looked up)
chain: AVITGACDKDSQCGGGMCCAVSIWVKSIRICTPMGKLGDSCHPLTRKVPFFGRRMHHTCPCLPGLACLRTSFNRFICLAQK
Take B2: the EC50 (nM), calcium mobilization, 293/mfPROKR1, Experiment 3 in test [1] amounted to 0.1 nM. In addition, in the test with human PROKR1 (human), the EC50 (nM), calcium mobilization, 293/hPROKR1, Experiment 1 came to 30.7 nM and the EC50 (nM), calcium mobilization, 293/hPROKR1, Experiment 3 came to 0.6 nM. In addition, in test [3], the Ligand EC50 (nM), calcium flux, CHO/mPROKR1 (induced) came out at 9.6 nM and the Ligand EC50 (nM), calcium flux, CHO/mPROKR1 (non-induced) is 0.8 nM.

(Values after patent US20150266957A1.)
